Measurements: PMC9279676, “ERK2 MAP kinase regulates SUFU binding by multisite phosphorylation of GLI1” (Life Science Alliance, 2022)
Where “and” joins values, the source holds several entries; their conditions need not be identical. Equal entries are not always repeated.

T1: full-length human SUFU protein, 35S-radiolabeled (human, UniProt Q9UMX1-1 1-484, [35S]-methionine label)
T1 construct: human SUFU, full length, residues 1-484, from plasmid pGEM4Z-SUFU; also called 35S-SUFU; radiolabeled SUFU; source: in vitro transcription and translation (SP6, Promega), partially purified by ammonium sulfate precipitation
T1 sequence (looked up): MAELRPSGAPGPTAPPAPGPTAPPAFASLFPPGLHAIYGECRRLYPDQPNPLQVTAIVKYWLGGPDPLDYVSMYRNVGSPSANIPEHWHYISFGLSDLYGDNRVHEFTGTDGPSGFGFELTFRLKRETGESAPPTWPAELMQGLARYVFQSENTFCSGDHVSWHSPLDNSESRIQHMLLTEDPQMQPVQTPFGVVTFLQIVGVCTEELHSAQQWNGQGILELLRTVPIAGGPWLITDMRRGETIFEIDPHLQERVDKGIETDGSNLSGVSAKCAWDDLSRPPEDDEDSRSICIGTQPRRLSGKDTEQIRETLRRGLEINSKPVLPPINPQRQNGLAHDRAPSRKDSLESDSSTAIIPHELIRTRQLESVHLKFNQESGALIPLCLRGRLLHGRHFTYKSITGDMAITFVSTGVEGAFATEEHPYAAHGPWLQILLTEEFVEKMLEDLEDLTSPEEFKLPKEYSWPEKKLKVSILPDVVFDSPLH

T2: GST-SUFU (fusion of GST to full-length human SUFU) (human, UniProt Q9UMX1-1 1-484)
T2 construct: human SUFU, full length (residues 1-484), BamHI-SUFU-SalI cassette in pGEX-LB; pGEX-LB carries a Gly-Gly-Gly-Gly-Gly-Ser-Gly stretch between GST and the fused protein; also called full-length GST-SUFU; source: Escherichia coli, purified (glutathione-Sepharose); not shown: GST, N-terminal, kept
T2 sequence (looked up): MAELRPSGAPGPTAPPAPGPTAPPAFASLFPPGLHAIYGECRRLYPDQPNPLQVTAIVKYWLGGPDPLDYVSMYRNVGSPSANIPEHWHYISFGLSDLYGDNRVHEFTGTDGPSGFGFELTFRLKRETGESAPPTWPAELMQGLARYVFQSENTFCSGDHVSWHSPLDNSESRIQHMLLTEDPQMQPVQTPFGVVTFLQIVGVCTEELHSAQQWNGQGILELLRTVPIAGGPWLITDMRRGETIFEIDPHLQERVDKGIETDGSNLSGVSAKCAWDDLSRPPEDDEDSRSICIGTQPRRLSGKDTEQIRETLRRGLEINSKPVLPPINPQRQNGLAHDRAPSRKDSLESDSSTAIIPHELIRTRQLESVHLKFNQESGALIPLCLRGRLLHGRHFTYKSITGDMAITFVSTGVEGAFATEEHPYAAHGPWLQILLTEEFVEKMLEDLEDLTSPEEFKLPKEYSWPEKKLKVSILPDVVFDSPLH


Target: T1, full-length human SUFU protein, …
Assay: pull-down; purified GST-GLI1_(68-232) variants (mock treated or ERK2 phosphorylated), 0 or 1.25-80 nM, on glutathione-Sepharose beads; ∼1 pmol 35S-SUFU in 200 μl; 15 min at 30°C, then 1 h at room temperature; Binding Buffer (20 mM Tris-HCl pH 7.5, 125 mM KOAc, 0.5 mM EDTA, 5 mM DTT, 0.1% Tween20, 12.5% glycerol) + 1 mg/ml BSA; bound SUFU quantified by SDS-PAGE and Phosphorimager; Kd from binding isotherms
Conditions: one partner purified

| Binder | Kd [nM] |
| --- | --- |
| GST-GLI1^7A (GST-GLI1_(68-232) with all seven SP serines changed to alanine), mock treated (domain or fragment, human, UniProt P08151-1 68-232, looked up, source: bacteria, purified (glutathione-Sepharose); mock treated (no ERK2)) FSAPRSAVKLTKKRALSIAPLSDASLDLQTVIRTAPSSLVAFINSRCTAPGGSYGHLSIGTMAPSLGFPAQMNHQKGPAPSFGVQPCGPHDSARGGMIPHPQSRGPFPTCQLKSELDMLVGKCREEPLEGDMSAPNSTGIQDPLLGMLDGREDLEREEKREPESV | ~23 |
| GST-GLI1^S102, phosphorylated by ERK2 (domain or fragment, human, UniProt P08151-1 68-232, looked up, phosphorylated by ERK2; only intact SP site S102, only the SP site S102 intact; also called ERK2-treated GLI1^S102; source: bacteria, purified (glutathione-Sepharose); then phosphorylated with purified active ERK2) FSAPRSAVKLTKKRALSIAPLSDASLDLQTVIRTSPSSLVAFINSRCTAPGGSYGHLSIGTMAPSLGFPAQMNHQKGPAPSFGVQPCGPHDSARGGMIPHPQSRGPFPTCQLKSELDMLVGKCREEPLEGDMSAPNSTGIQDPLLGMLDGREDLEREEKREPESV | 14 ± 4 |
| GST-GLI1^7A, treated with active ERK2 (domain or fragment, human, UniProt P08151-1 68-232, looked up, treated with ERK2; only minimally phosphorylated, also called 7A+ERK2; ERK2-treated GLI1^7A; source: bacteria, purified (glutathione-Sepharose); then treated with purified active ERK2) FSAPRSAVKLTKKRALSIAPLSDASLDLQTVIRTAPSSLVAFINSRCTAPGGSYGHLSIGTMAPSLGFPAQMNHQKGPAPSFGVQPCGPHDSARGGMIPHPQSRGPFPTCQLKSELDMLVGKCREEPLEGDMSAPNSTGIQDPLLGMLDGREDLEREEKREPESV | ~23 |

Target: T2, GST-SUFU (fusion of GST to full-length …)
Assay: pull-down; purified GST-SUFU, 1.25-80 nM, captured on glutathione-Sepharose beads; ∼1 pmol 35S-GLI1 (1-232 or full length) in 200 μl; 15 min at 30°C, then 1 h at room temperature; Binding Buffer + 1 mg/ml BSA; bound GLI1 quantified by SDS-PAGE and Phosphorimager; Kd from binding isotherms
Conditions: one partner purified

| Binder | Kd | fold reduction in affinity against wild-type GLI1_(1-232) [fold] |
| --- | --- | --- |
| GLI1_(1-232), wild type, 35S-radiolabeled (domain or fragment, human, UniProt P08151-1 1-232, looked up, [35S]-methionine label, source: in vitro transcription/translation (T7), partially purified by ammonium sulfate precipitation) MFNSMTPPPISSYGEPCCLRPLPSQGAPSVGTEGLSGPPFCHQANLMSGPHSYGPARETNSCTEGPLFSSPRSAVKLTKKRALSISPLSDASLDLQTVIRTSPSSLVAFINSRCTSPGGSYGHLSIGTMSPSLGFPAQMNHQKGPSPSFGVQPCGPHDSARGGMIPHPQSRGPFPTCQLKSELDMLVGKCREEPLEGDMSSPNSTGIQDPLLGMLDGREDLEREEKREPESV | 8 nM and 14 nM | – |
| GLI1_(1-232) S102E S116E, 35S-radiolabeled (domain or fragment, human, UniProt P08151-1 1-232, looked up, [35S]-methionine label, also called S102E S116E double mutant; source: in vitro transcription/translation (T7), partially purified by ammonium sulfate precipitation) MFNSMTPPPISSYGEPCCLRPLPSQGAPSVGTEGLSGPPFCHQANLMSGPHSYGPARETNSCTEGPLFSSPRSAVKLTKKRALSISPLSDASLDLQTVIRTEPSSLVAFINSRCTEPGGSYGHLSIGTMSPSLGFPAQMNHQKGPSPSFGVQPCGPHDSARGGMIPHPQSRGPFPTCQLKSELDMLVGKCREEPLEGDMSSPNSTGIQDPLLGMLDGREDLEREEKREPESV | – | 12 |
| GLI1_(1-232) L124P (tumor-derived), 35S-radiolabeled (domain or fragment, human, UniProt P08151-1 1-232, looked up, [35S]-methionine label, source: in vitro transcription/translation, partially purified by ammonium sulfate precipitation) MFNSMTPPPISSYGEPCCLRPLPSQGAPSVGTEGLSGPPFCHQANLMSGPHSYGPARETNSCTEGPLFSSPRSAVKLTKKRALSISPLSDASLDLQTVIRTSPSSLVAFINSRCTSPGGSYGHPSIGTMSPSLGFPAQMNHQKGPSPSFGVQPCGPHDSARGGMIPHPQSRGPFPTCQLKSELDMLVGKCREEPLEGDMSSPNSTGIQDPLLGMLDGREDLEREEKREPESV | 3800 nM | – |
| GLI1_(1-232) S102E S116E S130E, 35S-radiolabeled (domain or fragment, human, UniProt P08151-1 1-232, looked up, [35S]-methionine label, also called S102E S116E S130E triple mutant; EEE; source: in vitro transcription/translation (T7), partially purified by ammonium sulfate precipitation) MFNSMTPPPISSYGEPCCLRPLPSQGAPSVGTEGLSGPPFCHQANLMSGPHSYGPARETNSCTEGPLFSSPRSAVKLTKKRALSISPLSDASLDLQTVIRTEPSSLVAFINSRCTEPGGSYGHLSIGTMEPSLGFPAQMNHQKGPSPSFGVQPCGPHDSARGGMIPHPQSRGPFPTCQLKSELDMLVGKCREEPLEGDMSSPNSTGIQDPLLGMLDGREDLEREEKREPESV | – | 65 |
| GLI1_(1-232) S102E S130E, 35S-radiolabeled (domain or fragment, human, UniProt P08151-1 1-232, looked up, [35S]-methionine label, also called S102E S130E double mutant; source: in vitro transcription/translation (T7), partially purified by ammonium sulfate precipitation) MFNSMTPPPISSYGEPCCLRPLPSQGAPSVGTEGLSGPPFCHQANLMSGPHSYGPARETNSCTEGPLFSSPRSAVKLTKKRALSISPLSDASLDLQTVIRTEPSSLVAFINSRCTSPGGSYGHLSIGTMEPSLGFPAQMNHQKGPSPSFGVQPCGPHDSARGGMIPHPQSRGPFPTCQLKSELDMLVGKCREEPLEGDMSSPNSTGIQDPLLGMLDGREDLEREEKREPESV | – | 38 |
| GLI1_(1-232) S105F (tumor-derived), 35S-radiolabeled (domain or fragment, human, UniProt P08151-1 1-232, looked up, [35S]-methionine label, source: in vitro transcription/translation, partially purified by ammonium sulfate precipitation) MFNSMTPPPISSYGEPCCLRPLPSQGAPSVGTEGLSGPPFCHQANLMSGPHSYGPARETNSCTEGPLFSSPRSAVKLTKKRALSISPLSDASLDLQTVIRTSPSFLVAFINSRCTSPGGSYGHLSIGTMSPSLGFPAQMNHQKGPSPSFGVQPCGPHDSARGGMIPHPQSRGPFPTCQLKSELDMLVGKCREEPLEGDMSSPNSTGIQDPLLGMLDGREDLEREEKREPESV | 181 ± 30 nM | – |
| GLI1_(1-232) S102E, 35S-radiolabeled (domain or fragment, human, UniProt P08151-1 1-232, looked up, [35S]-methionine label, source: in vitro transcription/translation (T7), partially purified by ammonium sulfate precipitation) MFNSMTPPPISSYGEPCCLRPLPSQGAPSVGTEGLSGPPFCHQANLMSGPHSYGPARETNSCTEGPLFSSPRSAVKLTKKRALSISPLSDASLDLQTVIRTEPSSLVAFINSRCTSPGGSYGHLSIGTMSPSLGFPAQMNHQKGPSPSFGVQPCGPHDSARGGMIPHPQSRGPFPTCQLKSELDMLVGKCREEPLEGDMSSPNSTGIQDPLLGMLDGREDLEREEKREPESV | – | ~8 |
